{"source": "paper PMC5660092", "target": "Bcl-2 (UniProt P10415)", "assay": "co-IP of Flag-Beclin 1", "details": "reference: wild type; sites S90"}
{"substance": "Beclin 1 (from UniProt Q14457) S90A", "values": [{"measurement": "binding against the reference", "result": "stronger"}]}
